Drawing on article PMC9359175, this text covers Kd and stoichiometry N for one substance.

The target of assay [1] is 5HB-H2 (SARS-CoV-2 5-helix bundle, optimal construct) (SARS-CoV-2) (UniProt P0DTC2). Briefly: BLI; […]; 20 mM MES pH 6.0, 150 mM NaCl, 0.05% Tween 20, 298 K; 1:1 model.
The target is the same in assay [2]. In words: BLI; […]; 20 mM HEPES pH 7.5, 150 mM NaCl, 0.05% Tween 20, 298 K; 1:1 model. For orientation: BLI is a label-free optical method that tracks binding on a fibre tip over time.
Assay [3] shares this target. Briefly: BLI; […]; 20 mM MES pH 5.5, 150 mM NaCl, 0.05% Tween 20, 298 K; 1:1 model.
For assay [4] the target is unchanged. In words: BLI; pH 5.
Assay [5] shares this target. Briefly: BLI; pH 4.5.
Assay [6] shares this target. In words: crystal structure.
The target is the same in assay [7]. In words: ITC; […]; 298 K; 20 mM HEPES pH 7.5, 150 mM NaCl; […]. For orientation: In ITC the heat of successive injections is recorded.

What is called Kd is a measure of binding affinity in units of concentration. The term stoichiometry N denotes a count of units in the complex or per binding partner. As to “HR2P, 36-mer peptide derived from SARS-CoV-2 S HR2 (D1168-L1203)”, the dissociation constant Kd in assay [1] came out at 3.22 nM; in assay [2], 4.91 nM; in assay [3], 3.08 nM; in assay [4], 2.43 nM; in assay [5], 1.37 nM; in assay [7], 5.12 nM. This substance also gave a stoichiometry N in assay [6] of 1.
